# According to IntAct's records for PubMed 17537733:
# Target: kdm1a_human KDM1A (UniProt O60341)
substance,measurement,value
Histone H3.1t (Homo sapiens) (from UniProt Q16695) K5M,effect of a mutation on the interaction,decreasing interaction
